Source: the supplement of paper PMC11865577

Experiments:
Assay in all cases: pull-down binding Z-score (relative to library population); higher = stronger binding
Settings in all cases: RNA library: Library-2
[1] = system: TO-3-N3-2 (biotin conjugate)
Procedure, shortened: (§1)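 A heat-folded, dye-end-labelled (Cy5 or Cy3) RNA library (1 μg, phosphate/NaCl/KCl buffer) was exposed for 60 min at 25 °C to streptavidin beads holding 100 pmol of biotin-conjugated small molecule. RNA retained on the beads was eluted in hot SDS and hybridised to a DNA barcode microarray for 20 h at 55.5 °C. Binding scores were Z-scores against the library mean and standard deviation, calculated after subtracting beads alone and taking trimmed means of replicate probes.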

TO-N3 (biotin conjugate) = system: TO-N3 (biotin conjugate)
Procedure, shortened: as §1

[2] = system: TO-3-N3 (biotin conjugate)
Procedure, shortened: as §1

[3] = system: TO-N3-2 (biotin conjugate)
Procedure, shortened: as §1

## GGGACUGAGAAUUAGCUCAUCCU [IAV_invivo_PB2_1_Motif_14+IAV_invivo_PB2_1_Motif_14]
[1]
  pull-down binding Z-score: -0.318
TO-N3 (biotin conjugate)
  pull-down binding Z-score: -0.536
[2]
  pull-down binding Z-score: -0.573
[3]
  pull-down binding Z-score: 0.208

## GGGACUUAUGAUUAUCCC [IAV_invivo_HA_4_Motif_18+IAV_invivo_HA_4_Motif_18]
[1]
  pull-down binding Z-score: 0.126
TO-N3 (biotin conjugate)
  pull-down binding Z-score: -0.122
[2]
  pull-down binding Z-score: 0.293
[3]
  pull-down binding Z-score: -0.911

## GGGAGAGACGAACAGUCGAUUGCC [IAV_invivo_PB2_1_Motif_17+IAV_invivo_PB2_1_Motif_17]
[1]
  pull-down binding Z-score: -0.268
TO-N3 (biotin conjugate)
  pull-down binding Z-score: 0.0259
[2]
  pull-down binding Z-score: -0.434
[3]
  pull-down binding Z-score: 0.839

## GGGAGAUAACAUUCC [IAV_invivo_M1_M2_7_Motif_7+IAV_invivo_M1_M2_7_Motif_7]
[1]
  pull-down binding Z-score: -0.0296
TO-N3 (biotin conjugate)
  pull-down binding Z-score: -0.16
[2]
  pull-down binding Z-score: -0.149
[3]
  pull-down binding Z-score: -0.107

## GGGAGAUUAAUGGUCCU [IAV_invivo_PB2_1_Motif_25+IAV_invivo_PB2_1_Motif_25]
[1]
  pull-down binding Z-score: 0.00669
TO-N3 (biotin conjugate)
  pull-down binding Z-score: 0.327
[2]
  pull-down binding Z-score: 0.341
[3]
  pull-down binding Z-score: 0.225

## GGGAGCAAACCC [IAV_invivo_PB1_2_Motif_31+IAV_invivo_PB1_2_Motif_31]
[1]
  pull-down binding Z-score: -0.259
TO-N3 (biotin conjugate)
  pull-down binding Z-score: -0.425
[2]
  pull-down binding Z-score: -0.179
[3]
  pull-down binding Z-score: 0.11

## GGGAGCUAUAAACAGCAGUCUCCC [IAV_invivo_HA_4_Motif_12+IAV_invivo_HA_4_Motif_12]
[1]
  pull-down binding Z-score: 0.213
TO-N3 (biotin conjugate)
  pull-down binding Z-score: 0.537
[2]
  pull-down binding Z-score: 0.403
[3]
  pull-down binding Z-score: 0.468

## GGGAGUCUUCGAGCUCUC [IAV_invivo_NP_5_Motif_24+IAV_invivo_NP_5_Motif_24]
[1]
  pull-down binding Z-score: -0.548
TO-N3 (biotin conjugate)
  pull-down binding Z-score: -0.358
[2]
  pull-down binding Z-score: -0.194
[3]
  pull-down binding Z-score: -0.555

## GGGAUUAUCCU
[1]
  pull-down binding Z-score: -0.465
TO-N3 (biotin conjugate)
  pull-down binding Z-score: -0.927
[2]
  pull-down binding Z-score: -0.811
[3]
  pull-down binding Z-score: -0.985

## GGGCAAGCUGUCUCAAAUGUCC [IAV_invivo_PA_3_Motif_10+IAV_invivo_PA_3_Motif_10]
[1]
  pull-down binding Z-score: -0.226
TO-N3 (biotin conjugate)
  pull-down binding Z-score: -0.543
[2]
  pull-down binding Z-score: -0.508
[3]
  pull-down binding Z-score: 0.0264

## GGGCCACUGCCAGAAGACAAUGAACCAAGUGGUUAUGCCC [IAV_invivo_PB1_2_Motif_5+IAV_invivo_PB1_2_Motif_5]
[1]
  pull-down binding Z-score: 0.0011
TO-N3 (biotin conjugate)
  pull-down binding Z-score: 0.0266
[2]
  pull-down binding Z-score: -0.323
[3]
  pull-down binding Z-score: 0.713

## GGGCCUCCCUGUUCUCAGCGGUCC [IAV_invivo_PA_3_Motif_11+IAV_invivo_PA_3_Motif_11]
[1]
  pull-down binding Z-score: -0.456
TO-N3 (biotin conjugate)
  pull-down binding Z-score: -0.152
[2]
  pull-down binding Z-score: -0.00636
[3]
  pull-down binding Z-score: -0.287

## GGGCUAGAUUCCC [DMSMaPseq_invitro_SARS-CoV-2_Motif_228]
[1]
  pull-down binding Z-score: -0.264
TO-N3 (biotin conjugate)
  pull-down binding Z-score: -0.867
[2]
  pull-down binding Z-score: -0.623
[3]
  pull-down binding Z-score: -0.533

## GGGCUCAGAAUAUGACUAUGUCAUAUUCACUCAAACCACUGAAACAGCUC [SHAPE_invitro_SARS-CoV-2_Motif_328]
[1]
  pull-down binding Z-score: 0.0239
TO-N3 (biotin conjugate)
  pull-down binding Z-score: -0.428
[2]
  pull-down binding Z-score: -0.515
[3]
  pull-down binding Z-score: -0.4

## GGGCUCAUACCC [IAV_invivo_HA_4_Motif_7+IAV_invivo_HA_4_Motif_7]
[1]
  pull-down binding Z-score: 0.875
TO-N3 (biotin conjugate)
  pull-down binding Z-score: 0.483
[2]
  pull-down binding Z-score: 0.721
[3]
  pull-down binding Z-score: 0.397

## GGGCUGUGACCACUGAAGUGGCAUUUGGCCU [IAV_invivo_M1_M2_7_Motif_9+IAV_invivo_M1_M2_7_Motif_9]
[1]
  pull-down binding Z-score: -0.255
TO-N3 (biotin conjugate)
  pull-down binding Z-score: -0.176
[2]
  pull-down binding Z-score: -0.255
[3]
  pull-down binding Z-score: 0.272

## GGGGACGACCU [IAV_invivo_NA_6_Motif_17+IAV_invivo_NA_6_Motif_17]
[1]
  pull-down binding Z-score: -0.417
TO-N3 (biotin conjugate)
  pull-down binding Z-score: 0.481
[2]
  pull-down binding Z-score: 0.479
[3]
  pull-down binding Z-score: -0.0675

## GGGGAUCUAUCAGAUUCUGGCGAUCUACUCAACUGUCGCCAGUUCACUGGUGCUUUUGGUCUCC [IAV_invivo_HA_4_Motif_19+IAV_invivo_HA_4_Motif_19]
[1]
  pull-down binding Z-score: 0.123
TO-N3 (biotin conjugate)
  pull-down binding Z-score: 0.629
[2]
  pull-down binding Z-score: 0.57
[3]
  pull-down binding Z-score: 0.69

## GGGGCCGGGGCCGGGGCCGGGGCCGGGGCCGGGGCC [G4_r(GGGGCC)8]
[1]
  pull-down binding Z-score: 4.66
TO-N3 (biotin conjugate)
  pull-down binding Z-score: 3.9
[2]
  pull-down binding Z-score: 4.47
[3]
  pull-down binding Z-score: 3.77

## GGGGCGUUUAUGCAACCC [IAV_invivo_PB1_2_Motif_33+IAV_invivo_PB1_2_Motif_33]
[1]
  pull-down binding Z-score: -0.277
TO-N3 (biotin conjugate)
  pull-down binding Z-score: -0.497
[2]
  pull-down binding Z-score: -0.754
[3]
  pull-down binding Z-score: -0.334

## GGGGCUGAGAAACCAAAGUUUC [IAV_invivo_PA_3_Motif_3+IAV_invivo_PA_3_Motif_3]
[1]
  pull-down binding Z-score: 0.214
TO-N3 (biotin conjugate)
  pull-down binding Z-score: 0.788
[2]
  pull-down binding Z-score: 0.484
[3]
  pull-down binding Z-score: 0.822

## GGGGUGAAGAGGAUACUUACCUG [U1snRNP5ss-12]
[1]
  pull-down binding Z-score: 0.365
TO-N3 (biotin conjugate)
  pull-down binding Z-score: 0.427
[2]
  pull-down binding Z-score: 0.145
[3]
  pull-down binding Z-score: 0.523

## GGGGUGUACAUCAAUACUGCCUU [IAV_invivo_PA_3_Motif_19+IAV_invivo_PA_3_Motif_19]
[1]
  pull-down binding Z-score: 0.332
TO-N3 (biotin conjugate)
  pull-down binding Z-score: 1.4
[2]
  pull-down binding Z-score: 1.11
[3]
  pull-down binding Z-score: 0.595

## GGGUACGACUUUGAAAGGGAGGGAUACUCUCUAGUCGGAAUAGACCC [IAV_invivo_NP_5_Motif_16+IAV_invivo_NP_5_Motif_16]
[1]
  pull-down binding Z-score: 0.439
TO-N3 (biotin conjugate)
  pull-down binding Z-score: 0.986
[2]
  pull-down binding Z-score: 0.779
[3]
  pull-down binding Z-score: 0.638

## GGGUAGGGUUUGGGGGAGAGCGUGGGCUGGGGUUCAGGGACA [pre-miRNA-1229_WT_FL]
[1]
  pull-down binding Z-score: 8.09
TO-N3 (biotin conjugate)
  pull-down binding Z-score: 6.62
[2]
  pull-down binding Z-score: 7.43
[3]
  pull-down binding Z-score: 5.13

## GGGUAGGGUUUGGGGGAGAGUGUGGGCUGGGGUUCAGGGACA [pre-miRNA-1229_SNP_FL]
[1]
  pull-down binding Z-score: 7.5
TO-N3 (biotin conjugate)
  pull-down binding Z-score: 6.27
[2]
  pull-down binding Z-score: 6.68
[3]
  pull-down binding Z-score: 4.79

## GGGUAGUGGUGAGCAUUGACC [IAV_invivo_PB2_1_Motif_22+IAV_invivo_PB2_1_Motif_22]
[1]
  pull-down binding Z-score: 0.601
TO-N3 (biotin conjugate)
  pull-down binding Z-score: 1.28
[2]
  pull-down binding Z-score: 1.17
[3]
  pull-down binding Z-score: 0.804

## GGGUCGGUUGCUCACAAGUCCUGCCUGCCUGCCU [IAV_invivo_NP_5_Motif_15+IAV_invivo_NP_5_Motif_15]
[1]
  pull-down binding Z-score: 0.184
TO-N3 (biotin conjugate)
  pull-down binding Z-score: 0.865
[2]
  pull-down binding Z-score: 0.283
[3]
  pull-down binding Z-score: 1.7

## GGGUGGGUGGGUGGGUGGGUGGGU [G4_r(GGGU)6]
[1]
  pull-down binding Z-score: 10.9
TO-N3 (biotin conjugate)
  pull-down binding Z-score: 7.43
[2]
  pull-down binding Z-score: 9.01
[3]
  pull-down binding Z-score: 5.53

## GGGUGGGUGGGUGGGUGGGUGGGUGGGUGGGU [G4_r(GGGU)8]
[1]
  pull-down binding Z-score: 10.2
TO-N3 (biotin conjugate)
  pull-down binding Z-score: 7.37
[2]
  pull-down binding Z-score: 9.08
[3]
  pull-down binding Z-score: 5.15

## GGGUUGGGUUGGGUUGGGUUGGGUUGGGUU [G4_r(GGGUU)6]
[1]
  pull-down binding Z-score: 10.1
TO-N3 (biotin conjugate)
  pull-down binding Z-score: 6.75
[2]
  pull-down binding Z-score: 7.99
[3]
  pull-down binding Z-score: 5.08

## GGGUUGGGUUGGGUUGGGUUGGGUUGGGUUGGGUUGGGUU [G4_r(GGGUU)8]
[1]
  pull-down binding Z-score: 10.2
TO-N3 (biotin conjugate)
  pull-down binding Z-score: 7.46
[2]
  pull-down binding Z-score: 8.9
[3]
  pull-down binding Z-score: 5.93
